Results reported in the supplement of paper PMC10567573.

B1: TRIB1 (parent)
chain: EIGTSDQIVPEYQEDSDISSFFC
B2: FCHO1 (parent)
chain: DKLALCHLELTRKLQDLIKDVLRY

Variants of: B1
Assay: protein stability index of a GFP-peptide fusion (GPS, HEK-293T) (PSI 1-6); higher = more stable
Conditions: c terminus: native
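Further: lentivirally expressed fusions sorted by FACS into six bins by GFP to DsRed ratio, PSI derived from sequencing read proportions per bin multiplied by bin number.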

Protein stability index of substitutions, site by site:
F21: G 3.97; I 3.59; T 4.78; A 3.98; E 4.43; N 4.7; V 3.89; Q 4.23; C 3.5; R 3.64; Y 2.64; L 3.45; W 2.89; K 4.67; D 3.9; S 4.08; M 3.85; P 4.6; H 4.58
S16: P 1.86; A 3.03; Q 3.32; K 3.5; F 2.6; W 2.27; E 1.75; D 2.15; L 2.65; C 2.41; H 2.68; Y 2.28; V 3.02; I 2.04; M 2.45; R 4.11; N 2.68; T 2.56; G 2.9
I18: K 4.39; E 2.69; P 2.88; F 2.91; A 3.4; L 2.92; R 4.26; S 3.64; V 3.08; D 3.36; C 3.16; G 3.6; M 3.29; N 3.75; T 3.64; H 3.69; W 2.41; Q 3.9; Y 3.25
D17: I 3.28; W 2.42; Y 2.99; H 3.47; P 3.12; S 3.13; G 4.13; F 3.2; L 3.2; Q 2.94; V 2.87; C 2.92; T 3.29; K 4.29; R 3.48; M 3.16; A 3.21; E 2.61; N 3.26
S20: D 2.3; G 3.23; M 2.62; T 3.07; K 4.34; R 3.89; N 2.83; H 3.57; Q 3.21; P 3.44; I 2.32; F 2.81; W 2.35; L 1.79; V 2.53; C 2.49; Y 2.42; E 2.37; A 3.2
F22: I 4.03; K 5.29; A 4.11; C 3.45; N 4.54; L 3.36; D 3.86; W 1.98; H 4.3; P 4.55; E 4.3; V 3.88; Q 4.82; S 4.48; Y 2.03; R 4.7; T 4.48; G 4.79; M 3.16
D15: W 2.9; Q 2.92; V 2.81; R 4.24; S 3.33; M 2.67; Y 2.48; N 3.86; I 2.28; P 3.02; L 2.18; T 3.4; K 3.42
S19: W 1.56; M 1.75; I 1.83; N 2.92; Y 1.84; Q 3.48; F 1.99; K 4.21; D 2.67; G 2.05; H 2.89; E 2.83; T 2.35; A 3.16; P 2.94; V 2.72; R 3.83; C 2.38; L 2.32
C23: F 2.29; L 2.9; W 1.95; V 2.77; I 2.67; H 3.65; Y 2.26; G 3.67; N 3.73; K 4.49; A 3.08; D 2.51; E 2.94; Q 3.76; R 4.18; M 1.73; T 2.1; P 3.44; S 2.8

Variants of: B2
Assay: as above
Conditions: c terminus: a fixed tail appended

Protein stability index, by site and new letter:
L5: P 1.82; H 2.98; E 1.62; I 1.94; T 1.72; S 3.18; W 4.03; Y 2.01
T11: N 1.26; Y 2.57; I 1.69; E 1.27; Q 2.8; S 2.25; C 3.34; F 3.07; M 2.82; P 1.51; D 3.07
L14: D 3.23; C 3.78; G 1.53; I 3.06; E 2.3; H 1.88; K 1.95; F 1.12
H7: F 2.4; I 1.49; S 1.81; W 1.38; T 3.2; C 2.12; A 1.84; L 1.56; D 3.07; N 3.01; R 2.93; Q 2.88; M 2.67
L8: H 3.96; W 2; K 2.72; D 2.63; N 2.36; I 1.79; F 2.65; G 2.92
K13: M 2.21; R 2.23; N 1.8; A 1.46; D 2.86; Y 2.74; P 2.54; V 3.38; L 1.52; I 1.15; C 1.75; G 2.47; T 3.29; S 1.98; E 2.19
L10: D 2.09; F 3.33; N 1.21; M 4.05; S 1.93; E 2.57; A 2.75; G 1.86; T 2.14; K 1.59; C 2.22; P 1.69; Y 1.76; R 1.51; V 3; H 1.3; Q 3.04
A4: W 3.22; S 1.81; C 2.52; P 2.33; Q 3.43; I 3.21; F 2.01; G 1.6; L 1.98
K2: P 1.39; N 1.26; H 2.72; A 1.43; S 2.21; E 2.28; T 1.97; C 3.86; M 3.83; D 3.04; Q 2.45; I 2.57; L 2.64
C6: N 3.3; P 2.37; S 3.13; D 1.15; Q 3.1; K 3; E 2.04; A 2.64; V 2.53; W 2.01; M 3.01; T 2.99; R 2.52
L3: V 3.04; A 1.44; C 2.51; H 2.12; T 1.81; K 2.23; S 1.79; D 2.09; F 2.93; N 2.25; E 2.3
R12: H 2.98; S 2.56; G 2.7; P 1.53; C 2.23; I 2.33; N 2.54; E 1.54; V 1.83; T 1.94; D 2.92; A 1.42; M 1.99; W 2.44; Y 2.6; Q 2.9
E9: Q 3.2; L 2.72; W 2.73; A 2.63; F 2.62; Y 3.21; P 3.31; N 5.51; G 2.87; V 4.2; I 2.67; S 1.77; H 2.19; K 3.04
D1: Q 4.47; S 2.45; E 2.15; K 2.37; F 3.44; V 3.12; W 1.41; G 5.1; Y 2.63; R 3.61; N 4.01; P 4.01; T 2.77
